Assay results from article PMC314469, “Protein Interaction Networks by Proteome Peptide Scanning” (PLoS Biology, 2004).

Target: T1, Yhr016c SH3 (YSC84_YEAST), P32793
T1 chain: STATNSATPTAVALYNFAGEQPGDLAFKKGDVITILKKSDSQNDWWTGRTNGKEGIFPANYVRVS
Assay: SPOT array

| Binder | normalised SPOT signal, Boehringer light units (BLU); mean over the file's lines of this peptide |
| --- | --- |
| PHFAKHSPDSPRTS [YER167W 325-338] | 27.4 |
| PSKKKSKPKVPAKN [YNL106C 1153-1166] | 62 |
| NTVEKLQPGLPVII [YBR056W 255-268] | 12 |
| PFLIKFTPKFPQSI [YMR156C 9-22] | 27.7 |
| PELAKNSPLAPIKK [YLL021W 1081-1094] | 14.6 |
| NVLLKAKPNDPAAT [YGR123C 104-117] | 310 |
| PESAKSNPNSPRLK [YOR231W 8-21] | 31.8 |
| PIGSRYNPNLPVTE [YPR019W 677-690] | 87.4 |
| PANPKILPKIPSGA [YPL137C 1165-1178] | 5.1 |
| PDLNKRPPREPIEF [YDR195W 471-484] | 4.6 |
| NYHHRETPPPPPSN [YPL055C 201-214] | 178 |
| PFIRRYTPLKPITK [YKR093W 410-423] | 91.6 |
| PGGPKFEPLYPREE [YHR165C 347-360] | 16.9 |
| PEWRRPHPNIPDAK [YJR035W 269-282] | 145 |

Target: T2, Boi1 SH3 (BOI1_YEAST), P38041
T2 chain: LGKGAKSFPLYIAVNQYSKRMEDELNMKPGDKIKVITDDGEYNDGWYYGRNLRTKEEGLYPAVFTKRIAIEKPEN
Assay: SPOT array

| Binder | normalised SPOT signal, Boehringer light units (BLU); mean over the file's lines of this peptide |
| --- | --- |
| PHFAKHSPDSPRTS [YER167W 325-338] | 150 |
| PSKKKSKPKVPAKN [YNL106C 1153-1166] | 383 |
| NTVEKLQPGLPVII [YBR056W 255-268] | 41 |
| PFLIKFTPKFPQSI [YMR156C 9-22] | 65 |
| PELAKNSPLAPIKK [YLL021W 1081-1094] | 685 |
| NVLLKAKPNDPAAT [YGR123C 104-117] | 1780 |
| PESAKSNPNSPRLK [YOR231W 8-21] | 618 |
| PIGSRYNPNLPVTE [YPR019W 677-690] | 132 |
| PANPKILPKIPSGA [YPL137C 1165-1178] | 158 |
| PDLNKRPPREPIEF [YDR195W 471-484] | 114 |
| NYHHRETPPPPPSN [YPL055C 201-214] | 58.5 |
| PFIRRYTPLKPITK [YKR093W 410-423] | 529 |
| PGGPKFEPLYPREE [YHR165C 347-360] | 0 |
| PEWRRPHPNIPDAK [YJR035W 269-282] | 1280 |

Target: T3, Yfr024 SH3 (LSB3_YEAST), P43603
T3 chain: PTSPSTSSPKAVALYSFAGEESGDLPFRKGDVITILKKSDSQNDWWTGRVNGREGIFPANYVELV
Assay: SPOT array

| Binder | normalised SPOT signal, Boehringer light units (BLU); mean over the file's lines of this peptide |
| --- | --- |
| PHFAKHSPDSPRTS [YER167W 325-338] | 33.4 |
| PSKKKSKPKVPAKN [YNL106C 1153-1166] | 565 |
| NTVEKLQPGLPVII [YBR056W 255-268] | 33.6 |
| PFLIKFTPKFPQSI [YMR156C 9-22] | 116 |
| PELAKNSPLAPIKK [YLL021W 1081-1094] | 69.3 |
| NVLLKAKPNDPAAT [YGR123C 104-117] | 63.4 |
| PESAKSNPNSPRLK [YOR231W 8-21] | 89.7 |
| PIGSRYNPNLPVTE [YPR019W 677-690] | 197 |
| PANPKILPKIPSGA [YPL137C 1165-1178] | 93.9 |
| PDLNKRPPREPIEF [YDR195W 471-484] | 268 |
| NYHHRETPPPPPSN [YPL055C 201-214] | 323 |
| PFIRRYTPLKPITK [YKR093W 410-423] | 624 |
| PGGPKFEPLYPREE [YHR165C 347-360] | 12.3 |
| PEWRRPHPNIPDAK [YJR035W 269-282] | 1150 |

Target: T4, Rvs167 SH3 (RV167_YEAST), P39743
T4 chain: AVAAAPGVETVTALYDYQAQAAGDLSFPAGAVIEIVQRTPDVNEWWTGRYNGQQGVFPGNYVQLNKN
Assay: SPOT array

| Binder | normalised SPOT signal, Boehringer light units (BLU); mean over the file's lines of this peptide |
| --- | --- |
| PHFAKHSPDSPRTS [YER167W 325-338] | 110 |
| PSKKKSKPKVPAKN [YNL106C 1153-1166] | 36.2 |
| NTVEKLQPGLPVII [YBR056W 255-268] | 16.6 |
| PFLIKFTPKFPQSI [YMR156C 9-22] | 147 |
| PELAKNSPLAPIKK [YLL021W 1081-1094] | 31.5 |
| NVLLKAKPNDPAAT [YGR123C 104-117] | 121 |
| PESAKSNPNSPRLK [YOR231W 8-21] | 80.9 |
| PIGSRYNPNLPVTE [YPR019W 677-690] | 95.7 |
| PANPKILPKIPSGA [YPL137C 1165-1178] | 34.3 |
| PDLNKRPPREPIEF [YDR195W 471-484] | 27.8 |
| NYHHRETPPPPPSN [YPL055C 201-214] | 129 |
| PFIRRYTPLKPITK [YKR093W 410-423] | 585 |
| PGGPKFEPLYPREE [YHR165C 347-360] | 176 |
| PEWRRPHPNIPDAK [YJR035W 269-282] | 94.1 |

What follows are binders tested against Sho1 SH3 (SHO1_YEAST), P40073 (assay: SPOT array).
Sequence of Sho1 SH3 (SHO1_YEAST), P40073 (P40073 295-366): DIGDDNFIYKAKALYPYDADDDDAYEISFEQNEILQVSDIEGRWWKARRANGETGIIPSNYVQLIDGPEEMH

| Binder | normalised SPOT signal, Boehringer light units (BLU); mean over the file's lines of this peptide |
| --- | --- |
| PHFAKHSPDSPRTS [YER167W 325-338] | 25.1 |
| PSKKKSKPKVPAKN [YNL106C 1153-1166] | 483 |
| NTVEKLQPGLPVII [YBR056W 255-268] | 2.8 |
| PFLIKFTPKFPQSI [YMR156C 9-22] | 97.2 |
| PELAKNSPLAPIKK [YLL021W 1081-1094] | 54.8 |
| NVLLKAKPNDPAAT [YGR123C 104-117] | 126 |
| PESAKSNPNSPRLK [YOR231W 8-21] | 69.5 |
| PIGSRYNPNLPVTE [YPR019W 677-690] | 36.1 |
| PANPKILPKIPSGA [YPL137C 1165-1178] | 16400 |
| PDLNKRPPREPIEF [YDR195W 471-484] | 69.6 |
| NYHHRETPPPPPSN [YPL055C 201-214] | 70 |
| PFIRRYTPLKPITK [YKR093W 410-423] | 59 |
| PGGPKFEPLYPREE [YHR165C 347-360] | 40.6 |
| PEWRRPHPNIPDAK [YJR035W 269-282] | 9.9 |

Target: T5, Boi2 SH3 (BOI2_YEAST), P39969
T5 chain: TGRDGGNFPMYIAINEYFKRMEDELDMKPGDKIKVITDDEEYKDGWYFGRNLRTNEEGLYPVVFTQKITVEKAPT
Assay: SPOT array

| Binder | normalised SPOT signal, Boehringer light units (BLU); mean over the file's lines of this peptide |
| --- | --- |
| PHFAKHSPDSPRTS [YER167W 325-338] | 11 |
| PSKKKSKPKVPAKN [YNL106C 1153-1166] | 32.8 |
| NTVEKLQPGLPVII [YBR056W 255-268] | 33.2 |
| PFLIKFTPKFPQSI [YMR156C 9-22] | 0 |
| PELAKNSPLAPIKK [YLL021W 1081-1094] | 0 |
| NVLLKAKPNDPAAT [YGR123C 104-117] | 29.5 |
| PESAKSNPNSPRLK [YOR231W 8-21] | 0 |
| PIGSRYNPNLPVTE [YPR019W 677-690] | 148 |
| PANPKILPKIPSGA [YPL137C 1165-1178] | 0.9 |
| PDLNKRPPREPIEF [YDR195W 471-484] | 10.6 |
| NYHHRETPPPPPSN [YPL055C 201-214] | 59.3 |
| PFIRRYTPLKPITK [YKR093W 410-423] | 67.8 |
| PGGPKFEPLYPREE [YHR165C 347-360] | 16.6 |
| PEWRRPHPNIPDAK [YJR035W 269-282] | 40.3 |

Target: T6, Myo5 SH3 (MYO5_YEAST), Q04439
T6 chain: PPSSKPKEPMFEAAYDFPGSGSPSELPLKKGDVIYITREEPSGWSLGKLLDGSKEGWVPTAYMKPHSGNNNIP
Assay: SPOT array

| Binder | normalised SPOT signal, Boehringer light units (BLU); mean over the file's lines of this peptide |
| --- | --- |
| PHFAKHSPDSPRTS [YER167W 325-338] | 236 |
| PSKKKSKPKVPAKN [YNL106C 1153-1166] | 580 |
| NTVEKLQPGLPVII [YBR056W 255-268] | 280 |
| PFLIKFTPKFPQSI [YMR156C 9-22] | 974 |
| PELAKNSPLAPIKK [YLL021W 1081-1094] | 125 |
| NVLLKAKPNDPAAT [YGR123C 104-117] | 156 |
| PESAKSNPNSPRLK [YOR231W 8-21] | 253 |
| PIGSRYNPNLPVTE [YPR019W 677-690] | 187 |
| PANPKILPKIPSGA [YPL137C 1165-1178] | 164 |
| PDLNKRPPREPIEF [YDR195W 471-484] | 192 |
| NYHHRETPPPPPSN [YPL055C 201-214] | 318 |
| PFIRRYTPLKPITK [YKR093W 410-423] | 649 |
| PGGPKFEPLYPREE [YHR165C 347-360] | 90 |
| PEWRRPHPNIPDAK [YJR035W 269-282] | 183 |
